Biological target: T1, extracellular domain of mouse PIR-B (Domains 1 to 6), biotinylated (mouse, UniProt P97484 25-642, biotinylated with BirA (site not stated))
T1 construct: The full-length protein is cited as NCBI NM_011095; also called Paired-Immunoglobulin-like Receptor B; PIR-B (extracellular domain)
T1 sequence: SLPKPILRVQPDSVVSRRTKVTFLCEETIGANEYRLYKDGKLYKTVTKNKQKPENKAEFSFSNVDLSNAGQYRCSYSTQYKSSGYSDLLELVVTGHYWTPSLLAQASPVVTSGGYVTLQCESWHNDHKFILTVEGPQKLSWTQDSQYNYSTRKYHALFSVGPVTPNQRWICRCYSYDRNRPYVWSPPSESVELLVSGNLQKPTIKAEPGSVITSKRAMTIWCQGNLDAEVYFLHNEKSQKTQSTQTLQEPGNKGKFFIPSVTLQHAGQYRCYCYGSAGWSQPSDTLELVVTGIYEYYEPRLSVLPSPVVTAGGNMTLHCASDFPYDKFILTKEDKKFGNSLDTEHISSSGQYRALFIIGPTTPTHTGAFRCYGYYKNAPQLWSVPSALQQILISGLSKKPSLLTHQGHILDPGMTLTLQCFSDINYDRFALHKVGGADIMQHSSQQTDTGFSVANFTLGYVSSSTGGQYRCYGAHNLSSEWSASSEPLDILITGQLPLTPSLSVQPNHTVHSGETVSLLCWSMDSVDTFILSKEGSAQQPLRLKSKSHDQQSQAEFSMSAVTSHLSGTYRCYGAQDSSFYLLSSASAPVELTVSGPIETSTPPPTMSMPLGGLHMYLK
Assay: SPR (BIAcore 3000), biotinylated PIR-B extracellular domain on streptavidin chip, HLA-G2 0.10-1.56 µM as analyte, 1:1 binding model
Experimental: Using BIAcore® 3000 (GE healthcare BIAcore), the affinity between HLA-G2 and the extracellular domain of PIR-B prepared as described above was determined in a surface plasmon resonance experiment. Streptavidin was first covalently fixed on a research grade sensor chip, and then the biotinylated extracellular domain of PIR-B or BSA as a negative control was fixed via the streptavidin. Then, a solution of HLA-G [α1-3] dimer in HBS-EP running buffer (10 mM HEPES pH7.5, 150 mM sodium chloride, 3.4 mM EDTA, 0.005% Surfactant P20) was run at 5 μL/min. Kinetics analysis of binding response was performed at various concentrations by subtracting the response measured in a control flow cell from the response measured in a sample flow cell. BIAevaluation version 4.1.1 (GE Healthcare) was used in the analysis.

- Kd: 142 nM
B1: HLA-G2 (HLA-G [α1-3] dimer; complex of the α1 and α3 domains of the HLA-G molecule) (ligand)
chain: GSHSMRYFSAAVSRPGRGEPRFIAMGYVDDTQFVRFDSDSACPRMEPRAPWVEQEGPEYWEEETRNTKAHAQTDRMNLQTLRGYYNQSEANPPKTHVTHHPVFDYEATLRCWALGFYPAEIILTWQRDGEDQTQDVELVETRPAGDGTFQKWAAVVVPSGEEQRYTCHVQHEGLPEPLMLRW
notes: It was run in SPR as 'HLA-G [α1-3] dimer'; also called α1-3 complex

Reference: patent US20210115137A1 (NATIONAL UNIVERSITY CORPORATION HOKKAIDO UNIVERSITY, published 2021)
